Test results reported in US20220281936.

Chain of Mouse IL12 (unmodified) (chain, as listed by the source, chain 1 of 2): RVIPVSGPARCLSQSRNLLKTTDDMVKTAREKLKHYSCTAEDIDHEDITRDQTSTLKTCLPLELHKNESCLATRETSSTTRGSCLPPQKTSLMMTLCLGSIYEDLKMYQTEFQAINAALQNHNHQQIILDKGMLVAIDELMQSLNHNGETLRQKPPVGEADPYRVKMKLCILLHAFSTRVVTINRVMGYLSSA
Chain of Mouse IL12 (unmodified) (chain, as listed by the source, chain 2 of 2): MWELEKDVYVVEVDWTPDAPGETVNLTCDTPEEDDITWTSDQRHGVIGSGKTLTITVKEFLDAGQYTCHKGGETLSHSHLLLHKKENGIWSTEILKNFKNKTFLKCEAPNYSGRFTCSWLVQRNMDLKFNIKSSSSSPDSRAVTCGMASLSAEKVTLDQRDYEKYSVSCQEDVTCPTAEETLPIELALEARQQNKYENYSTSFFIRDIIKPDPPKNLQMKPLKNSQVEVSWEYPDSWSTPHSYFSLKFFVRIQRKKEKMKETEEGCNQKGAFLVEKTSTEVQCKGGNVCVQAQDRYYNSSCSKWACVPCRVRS
Chain of Recombinant mouse matrix metalloproteinase-2 (MMP2) (chain, as listed by the source): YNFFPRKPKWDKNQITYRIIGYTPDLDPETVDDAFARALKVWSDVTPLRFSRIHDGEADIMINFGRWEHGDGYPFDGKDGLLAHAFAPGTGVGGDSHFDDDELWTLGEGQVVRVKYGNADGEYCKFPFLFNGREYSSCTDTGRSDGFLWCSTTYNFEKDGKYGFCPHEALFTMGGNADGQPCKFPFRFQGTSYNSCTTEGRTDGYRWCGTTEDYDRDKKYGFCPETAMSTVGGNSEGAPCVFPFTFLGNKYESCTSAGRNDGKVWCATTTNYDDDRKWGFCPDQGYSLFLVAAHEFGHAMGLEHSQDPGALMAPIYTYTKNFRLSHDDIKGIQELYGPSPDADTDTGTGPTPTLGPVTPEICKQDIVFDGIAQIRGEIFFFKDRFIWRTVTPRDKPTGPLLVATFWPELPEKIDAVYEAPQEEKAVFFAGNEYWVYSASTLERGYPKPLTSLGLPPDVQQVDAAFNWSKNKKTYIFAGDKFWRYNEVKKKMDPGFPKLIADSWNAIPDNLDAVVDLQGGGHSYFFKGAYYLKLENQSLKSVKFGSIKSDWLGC
Chain of IL12Rβ1-LS-IL12 (chain, as listed by the source, chain 1 of 2): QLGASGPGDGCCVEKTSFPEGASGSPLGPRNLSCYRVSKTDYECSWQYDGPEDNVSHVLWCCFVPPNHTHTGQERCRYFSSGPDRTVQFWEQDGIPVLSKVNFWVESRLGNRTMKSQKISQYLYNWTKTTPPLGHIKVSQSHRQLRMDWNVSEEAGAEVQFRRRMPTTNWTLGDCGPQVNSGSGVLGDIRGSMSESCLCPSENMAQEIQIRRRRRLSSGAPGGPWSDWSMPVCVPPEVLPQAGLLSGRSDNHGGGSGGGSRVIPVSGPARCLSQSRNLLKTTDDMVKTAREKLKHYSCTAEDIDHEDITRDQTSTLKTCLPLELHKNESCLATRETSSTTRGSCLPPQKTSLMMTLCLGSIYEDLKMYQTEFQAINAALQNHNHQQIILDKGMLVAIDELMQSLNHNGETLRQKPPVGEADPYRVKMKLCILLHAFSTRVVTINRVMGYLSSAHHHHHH
Chain of IL12Rβ1-LS-IL12 (chain, as listed by the source, chain 2 of 2): as the sequence (chain, as listed by the source, chain 2 of 2) above

Row | Substance | proteolytic cleavage, SDS-PAGE (IL12Rβ1-LS-IL12) | proteolytic cleavage, SDS-PAGE (Mouse IL12 (unmodified)) | proteolytic cleavage, SDS-PAGE (30 min, 37 C) (IL12Rβ1-VP-IL12)
1 | Recombinant human urokinase plasminogen activator (uPA) | IL12Rβ1-LS-IL12 containing LSGRSDNH (SEQ ID NO:49) substrate was cleaved by uPA | These enzymes had no effect on IL12 itself | –
2 | Recombinant mouse matrix metalloproteinase-2 (MMP2) | – | These enzymes had no effect on IL12 itself | MMP2 and MMP9 fully cleaved the IL12Rβ1 portion, yielding IL12 heterodimer (-60 kDa)
